This test addresses murine Protein S (mouse) (UniProt Q08761). As to the kind of experiment: cell-based or functional assay.
Sequence of UniProt Q08761 (Q08761 42-675): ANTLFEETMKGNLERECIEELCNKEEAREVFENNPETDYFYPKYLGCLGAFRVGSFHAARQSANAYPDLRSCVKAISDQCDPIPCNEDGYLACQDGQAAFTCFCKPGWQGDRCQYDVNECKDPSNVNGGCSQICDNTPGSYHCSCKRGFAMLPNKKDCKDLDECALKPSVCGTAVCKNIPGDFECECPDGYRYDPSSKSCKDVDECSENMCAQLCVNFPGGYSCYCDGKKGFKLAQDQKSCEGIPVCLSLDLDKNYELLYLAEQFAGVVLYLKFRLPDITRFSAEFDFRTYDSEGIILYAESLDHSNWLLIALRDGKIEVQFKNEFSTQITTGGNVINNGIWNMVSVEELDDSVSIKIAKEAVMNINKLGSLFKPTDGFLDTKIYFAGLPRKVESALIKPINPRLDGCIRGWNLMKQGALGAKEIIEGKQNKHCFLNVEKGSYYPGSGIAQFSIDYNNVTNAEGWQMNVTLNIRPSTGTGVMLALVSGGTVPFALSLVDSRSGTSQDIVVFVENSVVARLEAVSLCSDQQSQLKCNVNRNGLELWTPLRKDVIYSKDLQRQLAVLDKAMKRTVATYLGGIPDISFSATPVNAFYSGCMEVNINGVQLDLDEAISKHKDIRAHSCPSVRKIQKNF

Take “mutated recombinant mouse APC (rmAPC L38D) (from UniProt P33587 42-460) (enzyme)”: the reduction of ETP in Ca2+ ionophore-activated PRP of WT mice at 8 nM APC is 30%.

The substance “wild type recombinant mouse APC (wt-rmAPC) (from UniProt P33587 42-460) (enzyme)” yielded a reduction of ETP in Ca2+ ionophore-activated PRP of WT mice at 8 nM APC of 90%.

For the origin of these results see patent US20230019513A1.
